The values that follow come from patent US20170129957A1 (BERGENBIO ASA, published 2017).

Test [1] deals with T1, recombinant human Axl-Fc chimera (R&D Systems, Cat. no. 154-AL) (human, UniProt P30530 26-451).
T1 construct: Bought reagent; also called rhAxl-Fc; rhAxl; not shown: human IgG1 Fc domain
T1 sequence: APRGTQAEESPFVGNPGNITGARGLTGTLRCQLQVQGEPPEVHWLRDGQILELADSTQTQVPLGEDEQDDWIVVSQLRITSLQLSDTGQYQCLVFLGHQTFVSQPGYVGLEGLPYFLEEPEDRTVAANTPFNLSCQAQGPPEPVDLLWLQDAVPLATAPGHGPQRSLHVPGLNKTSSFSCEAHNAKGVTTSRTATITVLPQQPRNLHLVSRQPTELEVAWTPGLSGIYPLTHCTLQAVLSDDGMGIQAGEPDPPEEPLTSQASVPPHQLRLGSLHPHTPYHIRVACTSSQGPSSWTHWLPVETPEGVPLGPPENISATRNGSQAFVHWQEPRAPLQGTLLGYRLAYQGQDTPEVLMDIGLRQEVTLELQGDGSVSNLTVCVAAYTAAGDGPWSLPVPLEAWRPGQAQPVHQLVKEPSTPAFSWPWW
Nature of the test: SPR (Biacore 3000, 25 °C), rhAxl-Fc immobilised at 190 RU, 1H12 1.3-666.7 nM, KD as koff/kon.

The target in test [2] is T2, human Axl receptor of Axl+ human cell lines (MDA-MB-231, NCI-H1299, HeLa) (human, UniProt P30530 26-894).
T2 construct: also called Axl+ cells; Axl-positive cells
T2 sequence: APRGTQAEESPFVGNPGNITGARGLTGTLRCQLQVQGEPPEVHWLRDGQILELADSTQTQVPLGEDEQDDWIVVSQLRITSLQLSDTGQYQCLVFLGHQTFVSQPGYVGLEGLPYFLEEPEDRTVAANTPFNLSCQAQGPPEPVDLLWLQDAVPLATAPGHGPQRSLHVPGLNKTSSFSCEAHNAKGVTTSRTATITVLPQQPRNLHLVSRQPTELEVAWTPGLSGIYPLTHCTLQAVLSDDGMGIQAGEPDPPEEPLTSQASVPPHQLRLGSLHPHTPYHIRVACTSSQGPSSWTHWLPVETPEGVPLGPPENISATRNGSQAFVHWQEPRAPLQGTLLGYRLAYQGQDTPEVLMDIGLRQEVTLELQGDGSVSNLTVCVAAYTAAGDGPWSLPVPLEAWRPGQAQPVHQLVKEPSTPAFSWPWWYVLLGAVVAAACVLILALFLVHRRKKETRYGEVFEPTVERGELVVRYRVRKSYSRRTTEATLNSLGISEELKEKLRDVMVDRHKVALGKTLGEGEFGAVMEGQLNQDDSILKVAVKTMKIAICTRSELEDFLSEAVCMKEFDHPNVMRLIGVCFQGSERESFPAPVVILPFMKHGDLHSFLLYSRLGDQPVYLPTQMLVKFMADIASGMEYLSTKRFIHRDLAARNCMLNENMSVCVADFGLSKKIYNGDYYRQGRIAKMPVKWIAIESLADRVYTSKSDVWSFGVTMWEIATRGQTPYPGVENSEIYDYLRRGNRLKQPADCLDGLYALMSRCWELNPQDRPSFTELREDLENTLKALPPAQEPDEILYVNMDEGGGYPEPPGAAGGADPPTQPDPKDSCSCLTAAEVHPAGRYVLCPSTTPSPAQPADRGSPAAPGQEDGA
Nature of the test: flow cytometry on MDA-MB-231 cells, detection with APC-conjugated donkey anti-mouse IgG (H+L) F(ab')2.

The target in test [3] is T1, recombinant human Axl-Fc chimera (R&D …). Description: SPR (Biacore 3000), rhAxl-Fc immobilised on CM5 at 190 RU, MAb 1H12 at 1.3-666.7 nM, 25 °C, BIAevaluation fit [table under the sensorgrams].
For test [4], the target named is T3, recombinant mouse Axl-Fc chimera (R&D Systems, Cat. no. 854-AX) (mouse, UniProt Q00993 19-443).
T3 construct: Bought soluble Fc chimera; also called rmAxl-Fc; rmAxl; Fc part of the bought chimera not given
T3 sequence: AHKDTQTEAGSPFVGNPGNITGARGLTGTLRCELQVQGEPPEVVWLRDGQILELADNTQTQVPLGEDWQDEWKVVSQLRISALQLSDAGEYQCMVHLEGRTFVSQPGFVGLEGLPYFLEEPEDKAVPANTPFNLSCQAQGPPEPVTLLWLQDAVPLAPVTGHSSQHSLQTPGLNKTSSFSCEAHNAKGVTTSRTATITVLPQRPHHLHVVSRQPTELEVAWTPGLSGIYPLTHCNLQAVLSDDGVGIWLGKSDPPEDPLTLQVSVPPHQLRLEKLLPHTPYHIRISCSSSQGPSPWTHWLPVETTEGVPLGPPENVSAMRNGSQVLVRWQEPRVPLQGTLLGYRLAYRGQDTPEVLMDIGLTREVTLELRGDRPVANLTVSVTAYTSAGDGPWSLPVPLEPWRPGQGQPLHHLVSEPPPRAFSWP
Nature of the test: SPR (Biacore 3000), rmAxl-Fc immobilised on CM5 at 2,115.9 RU, MAb 1H12 injected [upper panel 1H12].

Test [5] deals with T4, recombinant human Mer-Fc chimera (R&D Systems, Cat. no. 891-MR) (human, UniProt Q12866 21-499, limits assumed).
T4 construct: Bought soluble Fc chimera; also called rhMer-Fc; rhMer; Fc part of the bought chimera not given
T4 sequence (looked up): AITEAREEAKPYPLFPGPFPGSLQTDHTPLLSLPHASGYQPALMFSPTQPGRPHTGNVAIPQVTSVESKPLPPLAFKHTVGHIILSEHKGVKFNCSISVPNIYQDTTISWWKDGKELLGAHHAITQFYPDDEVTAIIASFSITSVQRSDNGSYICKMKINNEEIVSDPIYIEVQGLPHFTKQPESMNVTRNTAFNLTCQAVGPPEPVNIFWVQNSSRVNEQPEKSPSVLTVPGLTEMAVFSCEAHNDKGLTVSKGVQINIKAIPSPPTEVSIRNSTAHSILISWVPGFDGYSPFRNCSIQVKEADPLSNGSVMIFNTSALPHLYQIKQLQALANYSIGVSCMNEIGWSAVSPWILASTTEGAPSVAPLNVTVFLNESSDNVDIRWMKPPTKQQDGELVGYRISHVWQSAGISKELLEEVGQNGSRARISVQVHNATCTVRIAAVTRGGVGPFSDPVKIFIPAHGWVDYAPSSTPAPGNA
Description: SPR (Biacore 3000), rhMer-Fc immobilised on CM5 at 303.6 RU, MAb 1H12 injected.

In test [6] the target is T1, recombinant human Axl-Fc chimera (R&D …). Nature of the test: SPR (Biacore 3000, 25 °C), calculated as ln2/koff.
Test [7] has the same target. Description: SPR (Biacore 3000, 25 °C), rhAxl-Fc immobilised at 190 RU, 1H12 1.3-666.7 nM.
Test [8] addresses T5, recombinant human Tyro3/Dtk-Fc chimera (R&D Systems, Cat. no. 859-DK) (human, UniProt Q06418 41-428).
T5 construct: Bought soluble Fc chimera; also called rhTyro3-Fc; rhTyro3; Fc part of the bought chimera not given
T5 sequence: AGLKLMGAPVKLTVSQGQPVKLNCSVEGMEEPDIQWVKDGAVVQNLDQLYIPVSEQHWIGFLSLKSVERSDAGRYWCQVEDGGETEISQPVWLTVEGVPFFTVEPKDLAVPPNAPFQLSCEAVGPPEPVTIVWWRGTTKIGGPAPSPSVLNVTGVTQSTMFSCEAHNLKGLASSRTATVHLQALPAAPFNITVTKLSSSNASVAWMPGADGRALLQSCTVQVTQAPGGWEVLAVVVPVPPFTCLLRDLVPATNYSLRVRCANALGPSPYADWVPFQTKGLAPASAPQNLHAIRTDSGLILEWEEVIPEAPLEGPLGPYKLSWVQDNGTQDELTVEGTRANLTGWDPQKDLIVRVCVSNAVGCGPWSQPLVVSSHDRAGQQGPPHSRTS
Nature of the test: SPR (Biacore 3000), rhTyro3/Dtk-Fc immobilised on CM5 at 364.0 RU, MAb 1H12 injected.

For test [9], the target named is T1, recombinant human Axl-Fc chimera (R&D …). Nature of the test: SPR (Biacore 3000, 25 °C), rhAxl-Fc immobilised at 190 RU, ch1H12 1.3-666.7 nM, 1:1 Langmuir model.
Test [10] shares this target. Nature of the test: SPR (Biacore 3000, 25 °C), rhAxl-Fc immobilised at 190 RU, ch1H12 1.3-666.7 nM, 1:1 Langmuir model, KD as koff/kon.
Test [11] shares this target. Nature of the test: SPR (Biacore 3000), rhAxl-Fc immobilised on CM5 at 190 RU, ch1H12 at 1.3-666.7 nM, 25 °C, 1:1 Langmuir fit [table under the sensorgrams].
For test [12] the target is unchanged. Description: SPR (Biacore 3000, 25 °C), comparison of KD with parental murine 1H12.
Test [13] deals with T2, human Axl receptor of Axl+ human cell …. Description: flow cytometry on MDA-MB-231 cells, detection with APC-conjugated donkey anti-human IgG (H+L) F(ab')2.

B1: mouse anti-Axl monoclonal antibody 1H12 (antibody, V domains shown)
VH: EVKLVESGGDLVKPGGSLKLSCAASGFTFSSYGMSWVRQTPDKRLEWVATISSGGSYTYYPDSVKGRFTISRDNAKNTLYLQMSSLKSEDTAMYYCARHPIYYTYDDTMDYWGQGTSVTVSS
VL: DIVLTQSPAIMAASPGEKVTMTCSASSSVSSGNFHWYQQKPGTSPKLWIYRTSNLASGVPARFSGSGSGTSYSLTISSMEAEDAATYYCQQWSGYPWTFGGGTKLEIK
notes: also called MAb 1H12; m 1H12
Take B1: the Kd in test [1] came to 0.0498 nM. In test [2], the “EC50 (read off the curve)” value is around 0.9 nM. Further, in [3], the kon is 214000 M⁻¹ s⁻¹. For the same molecule, the binding result in test [4], in test [5] and in [8] was “no binding (tested: 10 µg/mL)” each time. In [6], the “half-life of the 1H12/Axl complex” value is 18 h. In addition, the off-rate (koff) in test [7] amounted to 1.07e-05 s⁻¹.

B2: chimeric (mouse variable/human constant IgG1) monoclonal antibody ch1H12 (antibody, V domains shown)
VH: B1 VH
VL: B1 VL
notes: also called chimeric MAb ch1H12; chimeric monoclonal antibody 1H12; not shown: constant domains of the human IgG1 heavy chain; human light chain constant domain (C-kappa)
With B2, in test [9], the koff amounted to 2.99e-06 s⁻¹. The Kd in test [10] was 0.011 nM. Further, the kon in test [11] is 271000 M⁻¹ s⁻¹. Further, the “half-life of the ch1H12/Axl complex” value in [6] was 64.4 h. Further, the “fold lower KD than the parental murine antibody 1H12” value in test [12] stood at 4.5 fold. The “EC50 (read off the curve)” value in test [13] is around 0.6 nM.
